These results are taken from patent publication US7906310B2, “Proteases” (Novozymes A/S, priority 2003, dated 2011).

Data set [1] in a line: pNA assay: protease activity with 1 mM Cu2+ relative to control without Cu2+. It counts as biochemical. Particulars: enzyme 1 mg/l, Suc-AAPF-pNA, pH 7, 25° C.; for Enzyme Activity, +1 mM Cu^2+: 1 mM Cu2+; for Enzyme Activity, Control (no Cu^2+): no Cu2+; for Relative Activity: activity with 1 mM Cu2+ relative to control without Cu2+. Here is the method: (§1) Protease activity is measured using the substrate Suc-AAPF-pNA, in assay buffer at pH 7.0 and 25° C. For more details, please refer to the pNA assay described in Example 4, which also describes in detail the determination according to i) and ii).
Feature ii) is determined as the enzyme activity in the presence of 1 mM Cu^2+, relative to the activity of the same enzyme under the same conditions, except for the presence of Cu^2+. For the protease of the invention, this relative activity is at least 0.66 (=66%). For the purposes of feature ii), enzyme (protease) activity is measured as described above.
pNA substrate: Suc-AAPF-pNA (Bachem L-1400) or Boc-VLGR-pNA (Bachem L-1205). Temperature: 25° C.
(§2) 20 ul (microliters) protease (diluted in 0.01% Triton X-100) was placed in a well of a micro titer plate. The assay was started by adding 200 ul pNA substrate (50 mg dissolved in 1.0 ml DMSO and further diluted 100× with assay buffer). The increase in OD405 was monitored as a measure of the protease activity.
First, the effect of various Cu^2+ concentrations was tested with an enzyme dosage of 1 mg/l. At least in the range of 0 to 1 mM Cu^2+ there seemed to be a linear relationship between inhibition and concentration of Cu^2+, the inhibition manifesting itself as a decrease in the enzyme activity with increasing concentrations of Cu^2+ (the enzyme activity being measured as average OD405 increase/time from the linear part of dose/response curves).

A short description of data set [2]: Stability assay: residual activity after incubation with 1 mM inhibitor, measured by pNA assay. Further details: key to Residual Enzyme Activity: fraction of activity at 0 h incubation (0.80 = 80%). Type of data set: physicochemical. Conditions: for Stability in the presence of 1 mM Cu2+ / Residual Enzyme Activity: 25° C.; for Residual Enzyme Activity: 1 mM Cu2+, pH 7, 0.1% K-sorbate, relative to 0 hours; for Feature i): residual activity at least 0.80 after 164 hours with 1 mM Cu2+: pH 7, 25° C., 0.1% K-Sorbate. Here is the method:
Feature i) is determined as residual (=rest, or remaining) enzyme activity after having incubated the enzyme for 164 hours, at pH 7 and 25° C., in assay buffer supplemented with 0.1% K-Sorbate (for preservation purposes), and in the presence of 1 mM Cu^2+. The residual activity is measured relative to the activity after 0 hours of incubation. For the protease of the invention, the residual activity is at least 0.80 (=80%).
as §1, §2
The protease was diluted to approx. 1 mg/ml (see below) in assay buffer with 0.1% (w/v) K-sorbate (potassium salt of sorbic acid) and 1 mM inhibitor. The mixture was incubated at 25° C.). At intervals, a sample was withdrawn from the incubation (after thorough mixing) and frozen. After dilution in assay buffer, residual activity was measured using the pNA assay. For the 1 mM inhibitor additions, the incubation was diluted in assay buffer with 5 mM EDTA in order to see a pure stability effect.
Protease concentrations were estimated from the theoretical molar extinction coefficients, E280 (1 M), which can be calculated from the amino acid composition using the formula: E280 (1 M)=5690*NTrp+1280*NTyr+120*NCys, where NTrp, NTyr, and NCys are the number of Trp, Tyr, and Cys amino acid residues in the protease (Gill, S. C., von Hippel, P. H., Analytical Biochemistry 182: 319-326 (1989)) and the molecular weight, Mw, of the protease calculated from the amino acid sequence. From an A280 measurement of a pure protease sample (more than 95% pure according to Example 2), the protease concentration was calculated as: Conc (mg/ml)=(A280*MW)/E280 (1 M)).
The stability of the various proteases in the presence of the various inhibitors in a concentration of 1 mM was tested as described above. The only inhibitor that had some effect on the stability of some of the proteases was Cu^2+. However, the effect of this inhibitor was not the same on all the proteases: See the results in Table 2 below showing that Protease 18 and the Brachysporiella proteases are indeed stable in the presence of 1 mM Cu^2+, while the other proteases are not.

B1: Protease 18: protease from Nocardiopsis dassonvillei subsp. dassonvillei DSM 43235, amino acids 1-188 of SEQ ID NO: 12 (protein)
chain: APAPVPQTPVADDSAASMTEALKRDLDLTSAEAEELLSAQEAAIETDAEATEAAGEAYGGSLFDTETLELTVLVTDASAVEAVEATGAQATVVSHGTEGLTEVVEDLNGAEVPESVLGWYPDVESDTVVVEVLEGSDADVAALLADAGVDSSSVRVEEAEEAPQVYADIIGGLAYYMGGRCSVGFAAT
modifications: Nocardiopsis dassonvillei subspecies dassonvillei
As for B1, in data set [1], the “Enzyme Activity, +1 mM Cu^2+” value was found to be 158.0 mOD405/min. The “Enzyme Activity, Control (no Cu^2+)” value in data set [1] was determined as 193.1 mOD405/min. In data set [2], the “Stability in the presence of 1 mM Cu2+” value was “stable”. Also, the “Residual Enzyme Activity” value in data set [2] (incubation time 0 hours) is 1.000; in data set [2] (incubation time 3.1 hours) it was 0.985; in data set [2] (incubation time 18.6 hours) it was 1.008; in data set [2] (incubation time 44.0 hours) it was 1.003; in data set [2] (incubation time 116.0 hours) it was 0.982; in data set [2] (incubation time 164.0 hours), 1.030. Also, in data set [2] (incubation time 188.6 hours), the “Residual Enzyme Activity” value is on record as 0.993. Also, in data set [2], the “Feature i): residual activity at least 0.80 after 164 hours with 1 mM Cu2+” value was “fulfil feature i)”.

B2: Protease 35: protease from Nocardiopsis prasina DSM 15649, amino acids 1-188 of SEQ ID NO: 8 (protein, listed as Nocardiopsis prasina)
chain: ATGPLPQSPTPEADAVSMQEALQRDLGLTPLEADELLAAQDTAFEVDEAAAEAAGDAYGGSVFDTETLELTVLVTDSAAVEAVEATGAGTELVSYGITGLDEIVEELNAADAVPGVVGWYPDVAGDTVVLEVLEGSGADVGGLLADAGVDASAVEVTTTEQPELYADIIGGLAYTMGGRCSVGFAATN
As for B2, the “Enzyme Activity, +1 mM Cu^2+” value in data set [1] is 75.0 mOD405/min. Also, the “Relative Activity” value in data set [1] is reported as 0.687. Besides, the “Enzyme Activity, Control (no Cu^2+)” value in data set [1] is 109.2 mOD405/min. For the same molecule, the “Residual Enzyme Activity” value in data set [2] (incubation time 0 hours) worked out at 1.000; in data set [2] (incubation time 3.1 hours), 0.960; in data set [2] (incubation time 18.6 hours) it was 0.918; in data set [2] (incubation time 44.0 hours), 0.852; in data set [2] (incubation time 116.0 hours) it was 0.807; in data set [2] (incubation time 164.0 hours), 0.745. The “Residual Enzyme Activity” value in data set [2] (incubation time 188.6 hours) is reported as 0.733.

B3: Protease 08: protease from Nocardiopsis alba DSM 15647, amino acids 1-188 of SEQ ID NO: 10 (protein, listed as Nocardiopsis alba)
chain: ATGPLPQSPTPDEAEATTMVEALQRDLGLSPSQADELLEAQAESFEIDEAATAAAADSYGGSIFDTDSLTLTVLVTDASAVEAVEAAGAEAKVVSHGMEGLEEIVADLNAADAQPGVVGWYPDIHSDTVVLEVLEGSGADVDSLLADAGVDTADVKVESTTEQPELYADIIGGLAYTMGGRCSVGFAA
Consider B3, for which the “Enzyme Activity, +1 mM Cu^2+” value in data set [1] is listed as 174.5 mOD405/min. Moreover, in data set [1], the “Enzyme Activity, Control (no Cu^2+)” value is given as 216.0 mOD405/min. For the same molecule, the “Residual Enzyme Activity” value is listed as 1.000 in data set [2] (incubation time 0 hours); 0.936 in data set [2] (incubation time 3.1 hours); 0.867 in data set [2] (incubation time 18.6 hours); 0.842 in data set [2] (incubation time 44.0 hours); 0.767 in data set [2] (incubation time 116.0 hours); 0.721 in data set [2] (incubation time 164.0 hours). For the same molecule, the “Residual Enzyme Activity” value in data set [2] (incubation time 188.6 hours) amounted to 0.703.

B4: Protease 10: known protease derived from Nocardiopsis sp. NRRL 18262, amino acids 1-188 of SEQ ID NO: 2 (protein)
chain: ADIIGGLAYTMGGRCSVGFAATNAAGQPGFVTAGHCGRVGTQVTIGNGRGVFEQSVFPGNDAAFVRGTSNFTLTNLVSRYNTGGYATVAGHNQAPIGSSVCRSGSTTGWHCGTIQARGQSVSYPEGTVTNMTRTTVCAEPGDSGGSYISGTQAQGVTSGGSGNCRTGGTTFYQEVTPMVNSWGVRLRT
For the molecule B4, the “Enzyme Activity, +1 mM Cu^2+” value in data set [1] is given as 80.3 mOD405/min. In addition, the “Relative Activity” value in data set [1] was found to be 0.657. The “Enzyme Activity, Control (no Cu^2+)” value in data set [1] amounted to 122.2 mOD405/min. The “Residual Enzyme Activity” value came out at 1.000 in data set [2] (incubation time 0 hours); 0.952 in data set [2] (incubation time 3.1 hours); 0.868 in data set [2] (incubation time 18.6 hours); 0.874 in data set [2] (incubation time 44.0 hours); 0.837 in data set [2] (incubation time 116.0 hours); 0.752 in data set [2] (incubation time 164.0 hours). In addition, the “Residual Enzyme Activity” value in data set [2] (incubation time 188.6 hours) is on record as 0.723.

B5: Brachysporiella protease: protease from Brachysporiella gayana CGMCC 0865, amino acids 1-186 of SEQ ID NO: 14 (protein, listed as Brachysporiella gayana)
chain: MELTSLIAALAVILPIAYGVPMDATTNLSPKVLAAMKRDLGLDAREATARVTFERRAGDVIEELRSSLGDSFAGAWVTDGKVINIGVTDQALVSKVKEAGAEPMVMKNSLGKLQEAKKKLDQIIKEKPKTLSTSGKPGIATYYVDIETNKLIITALSTSITQAEDLAKEVGLSESEFEVRKTEKMP
As to B5, the “Enzyme Activity, +1 mM Cu^2+” value in data set [1] stood at 50.5 mOD405/min. Besides, in data set [1], the “Relative Activity” value is listed as 0.695. In addition, in data set [1], the “Enzyme Activity, Control (no Cu^2+)” value came to 72.6 mOD405/min. Besides, the “Stability in the presence of 1 mM Cu2+” value in data set [2] is “stable”. For the same molecule, the “Residual Enzyme Activity” value in data set [2] (incubation time 0 hours) is 1.000; in data set [2] (incubation time 3.1 hours) it was 1.022; in data set [2] (incubation time 18.6 hours), 1.073; in data set [2] (incubation time 44.0 hours) it was 1.057; in data set [2] (incubation time 116.0 hours), 1.029; in data set [2] (incubation time 164.0 hours) it was 1.053. For the same molecule, the “Residual Enzyme Activity” value in data set [2] (incubation time 188.6 hours) was 0.984. The “Feature i): residual activity at least 0.80 after 164 hours with 1 mM Cu2+” value in data set [2] is listed as “fulfil feature i)”.

B6: Protease 11: protease from Nocardiopsis prasina DSM 15648, amino acids 1-188 of SEQ ID NO: 6 (protein, listed as Nocardiopsis prasina)
chain: ATGPLPQSPTPEADAVSMQEALQRDLGLTPLEADELLAAQDTAFEVDEAAAAAAGDAYGGSVFDTETLELTVLVTDAASVEAVEATGAGTELVSYGIEGLDEIIQDLNAADAVPGVVGWYPDVAGDTVVLEVLEGSGADVSGLLADAGVDASAVEVTSSAQPELYADIIGGLAYTMGGRCSVGFAATN
For B6, the “Enzyme Activity, +1 mM Cu^2+” value in data set [1] was found to be 92.3 mOD405/min. Moreover, the “Relative Activity” value in data set [1] was 0.691. Besides, in data set [1], the “Enzyme Activity, Control (no Cu^2+)” value is recorded as 133.6 mOD405/min. The “Residual Enzyme Activity” value in data set [2] (incubation time 0 hours) was 1.000; in data set [2] (incubation time 3.1 hours), 0.930; in data set [2] (incubation time 18.6 hours), 1.032; in data set [2] (incubation time 44.0 hours), 0.930; in data set [2] (incubation time 116.0 hours), 0.737; in data set [2] (incubation time 164.0 hours) it was 0.616. The “Residual Enzyme Activity” value in data set [2] (incubation time 188.6 hours) is recorded as 0.581.
